Measured values published in patent US20240309061A1.
Each block holds one substance with its values, some of them ahead of it.

What was measured:
[1] = target: Rhesus IL-2Rβγ on CD8+ T and NK cells in whole blood (rhesus monkey)
[2] = target: Rhesus IL-2Rβγ on CD8+ T and NK cells in whole blood (rhesus monkey); remark: listed apart in the source
[3] = target: Human IL-2Rβγ on CD8+ T and NK cells in whole blood (human) (UniProt P14784)
[4] = target: Human IL-2Rβγ on CD8+ T and NK cells in whole blood (human) (UniProt P14784); remark: listed apart in the source
[5] = target: Cynomolgus IL-2Rα, polyhistidine-tagged (cynomolgus) (UniProt H6WS54); experiment: SPR (Biacore T200), His-tagged receptor
[6] = target: Cynomolgus/Rhesus IL-2Rβ, polyhistidine-tagged (cynomolgus/rhesus) (UniProt Q38J85); experiment: SPR (Biacore T200), His-tagged receptor
Chain of Cynomolgus/Rhesus IL-2Rβ, polyhistidine-tagged (cynomolgus/rhesus) (Q38J85 27-240 limits assumed): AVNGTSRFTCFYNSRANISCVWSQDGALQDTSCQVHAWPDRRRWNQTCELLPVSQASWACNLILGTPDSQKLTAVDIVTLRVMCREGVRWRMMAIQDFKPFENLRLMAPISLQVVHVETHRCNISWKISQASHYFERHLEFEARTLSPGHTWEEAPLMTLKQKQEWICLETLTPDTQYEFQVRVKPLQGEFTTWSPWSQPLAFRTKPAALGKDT

[7] = target: Human IL-2Rα, polyhistidine-tagged (human) (UniProt P01589); experiment: SPR (Biacore T200), His-tagged receptor
Chain of Human IL-2Rα, polyhistidine-tagged (human) (P01589 22-213 limits assumed): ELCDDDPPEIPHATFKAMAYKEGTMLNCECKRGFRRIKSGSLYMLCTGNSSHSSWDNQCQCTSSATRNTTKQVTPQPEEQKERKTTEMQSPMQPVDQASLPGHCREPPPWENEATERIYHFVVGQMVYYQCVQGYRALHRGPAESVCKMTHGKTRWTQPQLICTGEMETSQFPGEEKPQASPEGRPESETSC

[8] = target: Human IL-2Rβ, polyhistidine-tagged (human) (UniProt P14784); experiment: SPR (Biacore T200), His-tagged receptor
Chain of Human IL-2Rβ, polyhistidine-tagged (human) (P14784 27-239 limits assumed): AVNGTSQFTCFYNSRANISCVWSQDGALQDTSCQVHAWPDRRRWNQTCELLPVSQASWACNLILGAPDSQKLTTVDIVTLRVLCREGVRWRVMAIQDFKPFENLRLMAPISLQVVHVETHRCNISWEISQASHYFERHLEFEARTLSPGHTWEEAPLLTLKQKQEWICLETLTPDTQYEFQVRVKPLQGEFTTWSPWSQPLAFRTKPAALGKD

[9] = target: Mouse IL-2Rα, polyhistidine-tagged (mouse) (UniProt P01590); experiment: SPR (Biacore T200), His-tagged receptor
Chain of Mouse IL-2Rα, polyhistidine-tagged (mouse) (P01590 22-236 limits assumed): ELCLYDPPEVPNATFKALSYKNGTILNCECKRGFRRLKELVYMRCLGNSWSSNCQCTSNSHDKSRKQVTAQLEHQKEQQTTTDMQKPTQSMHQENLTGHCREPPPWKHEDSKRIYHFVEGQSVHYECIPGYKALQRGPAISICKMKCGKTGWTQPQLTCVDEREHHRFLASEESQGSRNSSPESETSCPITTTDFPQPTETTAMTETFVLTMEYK

[10] = target: Rat IL-2Rα, polyhistidine-tagged (rat) (UniProt P26897); experiment: SPR (Biacore T200), His-tagged receptor
Chain of Rat IL-2Rα, polyhistidine-tagged (rat) (P26897 22-235 limits assumed): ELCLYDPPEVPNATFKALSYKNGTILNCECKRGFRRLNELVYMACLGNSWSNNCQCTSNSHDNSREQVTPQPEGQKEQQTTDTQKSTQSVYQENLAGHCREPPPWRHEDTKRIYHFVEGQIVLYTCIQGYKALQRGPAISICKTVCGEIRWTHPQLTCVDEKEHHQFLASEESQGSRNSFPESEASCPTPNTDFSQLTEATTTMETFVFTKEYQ

[11] = target: Rhesus IL-2Rα, polyhistidine-tagged (rhesus) (UniProt Q5MNY4); experiment: SPR (Biacore T200), His-tagged receptor
Chain of Rhesus IL-2Rα, polyhistidine-tagged (rhesus) (Q5MNY4 22-240 limits assumed): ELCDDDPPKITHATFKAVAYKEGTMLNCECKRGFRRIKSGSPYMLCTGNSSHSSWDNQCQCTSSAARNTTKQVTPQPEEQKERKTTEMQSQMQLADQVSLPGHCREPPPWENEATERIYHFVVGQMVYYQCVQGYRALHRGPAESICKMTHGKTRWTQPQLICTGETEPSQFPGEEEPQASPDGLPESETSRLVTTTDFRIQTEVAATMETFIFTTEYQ

[12] = target: Cynomolgus IL-2Rα, polyhistidine-tagged (cynomolgus) (UniProt H6WS54); experiment: SPR (Biacore T200), ratio to human IL-2Rα
[13] = target: Human IL-2Rα, polyhistidine-tagged (human) (UniProt P01589); experiment: SPR (Biacore T200), ratio to human IL-2Rα
[14] = target: Mouse IL-2Rα, polyhistidine-tagged (mouse) (UniProt P01590); experiment: SPR (Biacore T200), ratio to human IL-2Rα
[15] = target: Rat IL-2Rα, polyhistidine-tagged (rat) (UniProt P26897); experiment: SPR (Biacore T200), ratio to human IL-2Rα
[16] = target: Rhesus IL-2Rα, polyhistidine-tagged (rhesus) (UniProt Q5MNY4); experiment: SPR (Biacore T200), ratio to human IL-2Rα
[17] = target: Cynomolgus/Rhesus IL-2Rβ, polyhistidine-tagged (cynomolgus/rhesus) (UniProt Q38J85); experiment: SPR (Biacore T200), ratio to human IL-2Rβ
[18] = target: Human IL-2Rβ, polyhistidine-tagged (human) (UniProt P14784); experiment: SPR (Biacore T200), ratio to human IL-2Rβ
[19] = target: IL-2Rαβ subunits on U2OS cells; experiment: cell-based or functional assay
[20] = target: IL-2Rβγ subunits on U2OS cells; experiment: cell-based or functional assay

Chain of Human IL-2Rβγ on CD8+ T and NK cells in whole blood (human) (P14784 27-551, chain 1 of 2): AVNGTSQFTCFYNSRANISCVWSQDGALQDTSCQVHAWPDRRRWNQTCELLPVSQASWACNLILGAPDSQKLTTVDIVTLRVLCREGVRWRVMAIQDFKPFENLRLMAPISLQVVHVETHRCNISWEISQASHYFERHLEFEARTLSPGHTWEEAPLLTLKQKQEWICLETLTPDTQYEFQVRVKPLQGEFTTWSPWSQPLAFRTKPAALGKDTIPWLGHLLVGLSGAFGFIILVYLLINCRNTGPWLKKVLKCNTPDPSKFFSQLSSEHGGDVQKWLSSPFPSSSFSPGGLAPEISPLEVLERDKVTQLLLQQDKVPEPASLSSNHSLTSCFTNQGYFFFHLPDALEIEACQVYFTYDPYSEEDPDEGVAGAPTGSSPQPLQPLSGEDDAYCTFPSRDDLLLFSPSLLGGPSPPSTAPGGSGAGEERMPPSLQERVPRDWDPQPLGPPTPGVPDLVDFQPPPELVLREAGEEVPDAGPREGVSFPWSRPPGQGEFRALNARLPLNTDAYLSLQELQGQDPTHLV
Chain of Human IL-2Rβγ on CD8+ T and NK cells in whole blood (human) (P31785 23-369, chain 2 of 2, further chain): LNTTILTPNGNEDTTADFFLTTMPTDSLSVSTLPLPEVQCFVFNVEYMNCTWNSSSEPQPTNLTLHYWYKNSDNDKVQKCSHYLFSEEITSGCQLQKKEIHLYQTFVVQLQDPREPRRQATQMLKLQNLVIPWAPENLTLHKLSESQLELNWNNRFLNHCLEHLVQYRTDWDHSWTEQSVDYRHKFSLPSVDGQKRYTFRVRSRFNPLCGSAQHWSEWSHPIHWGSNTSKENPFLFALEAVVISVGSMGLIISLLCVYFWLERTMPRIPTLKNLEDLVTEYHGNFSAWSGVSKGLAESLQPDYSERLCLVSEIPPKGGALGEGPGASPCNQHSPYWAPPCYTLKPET

- EC50; pSTAT5 normalized gMFI in CD8 cells, rhesus whole blood (Rh donor 20-1068), flow cytometry [1]: 4.05 nM
- EC50; pSTAT5 normalized gMFI in NK cells, rhesus whole blood (Rh donor 20-1068), flow cytometry [2]: 2.44 nM
- EC50; pSTAT5 normalized gMFI in CD8 cells, human whole blood (Hu donor 2), flow cytometry [3]: 1.41 nM
- EC50; pSTAT5 normalized gMFI in NK cells, human whole blood (Hu donor 2), flow cytometry [4]: 0.35 nM
- Kd [5]: 30 nM
- Kd [6]: 1300 nM
- Kd [7]: 28 nM
- Kd [8]: 940 nM
- Kd [9]: 29 nM
- Kd [10]: 87 nM
- Kd [11]: 49 nM
- KD/KD (hu) [12]: 1.1
- KD/KD (hu) [13]: 1
- KD/KD (hu) [14]: 1
- KD/KD (hu) [15]: 3.1
- KD/KD (hu) [16]: 1.8
- KD/KD (hu) [17]: 1.4
- KD/KD (hu) [18]: 1
Substance: WT-IL-2 Fc (from UniProt P01857 104-329) (Fc fusion)

- Ave. EC50 of engaging IL-2Rαβ subunits (receptor engagement study, N = 3) [19]: 30 nM
- Ave. EC50 of engaging IL-2Rβγ subunits (receptor engagement study, N = 3) [20]: 2.3 nM
Substance: Y45R-IL-2 Fc, bivalent (Fc fusion)

- Ave. EC50 of engaging IL-2Rαβ subunits (receptor engagement study, N = 3) [19]: 400 nM
- Ave. EC50 of engaging IL-2Rβγ subunits (receptor engagement study, N = 3) [20]: 2 nM
Substance: R38Q/Y45F-IL-2 Fc, monovalent (from UniProt P01857 104-329) (Fc fusion)

- Ave. EC50 of engaging IL-2Rαβ subunits (receptor engagement study, N = 3) [19]: 7 nM
- Ave. EC50 of engaging IL-2Rβγ subunits (receptor engagement study, N = 3) [20]: 3.5 nM
Substance: R38Q/Y45F-IL-2 Fc, bivalent (Fc fusion)
